# Measured values taken from article PMC8358021, “Structural basis of the complementary activity of two ketosynthases in aryl polyene biosynthesis” (Scientific Reports, 2021).
# B1: holo ACP2 (ApeF), acyl carrier protein 2 of the A. baumannii APE gene cluster (natural protein)
# chain: MSNLADELKQMIIDVLALEDITIADIDTEAPLFGEGLGLDSIDALELGLALKKRYNIHLNAESDETKQHFKSIQSLVALVEAQQKS
# modifications: 4'-phosphopantetheine (holo form)
# What was measured:
# [1] = target: T1, AbApeO-AbApeC heterodimer (ketosynthase-chain length factor complex of the aryl polyene biosynthesis gene … (Acinetobacter baumannii)); experiment: ITC; 2.0 mM holo ACP1 or holo ACP2 injected (19 injections of 3 µl) into 0.1 mM AbApeO-AbApeC or AbApeR; 25 °C; 40 mM potassium phosphate pH 7.0; 2 mM 2-mercaptoethanol; conditions: both partners purified
# T1 construct: ApeO, ketosynthase of the APE biosynthesis gene cluster, Acinetobacter baumannii (pathogenic strain, global clone 2); ApeC, chain length factor of the APE biosynthesis gene cluster, Acinetobacter baumannii (pathogenic strain, global clone 2); The His6 tag on AbApeO is said to be not cleavable; The complex was formed by co-expression and used as one molecule in ITC; also called ApeO-ApeC; …
# [2] = target: T2, AbApeR (FabB-like homodimeric ketosynthase of the A. baumannii APE gene cluster) (Acinetobacter baumannii); experiment: as above; conditions: both partners purified
# T2 construct: ApeR, ketoacyl-ACP synthase I (FabB)-like ketosynthase of the APE biosynthesis gene cluster, Acinetobacter baumannii (pathogenic strain, global clone 2); not shown: His6, N-terminal, cleaved
binder,measurement,setting,value
B1,stoichiometry N,[1],1.21
same,Kd,[2],41 µM
same,stoichiometry N,[2],0.71
